Reference: patent US20240101668A1 (WUGEN, published 2024)
Positions count from the first letter of the chain named.

B1: Polypeptide No. 14 (scFv, V domains shown)
VH: QVQLVQSGAEVKKPGASVKVSCKASGYTFTGYYMHWVRQAPGQGLEWMGIINPSGGSTSYAQKFQGRVTMTRDTSTSTVYMELSSLRSEDTAVYYCARAAPYYYDSSGYYSGGYYFDYWGQGTLVTVSS
VL: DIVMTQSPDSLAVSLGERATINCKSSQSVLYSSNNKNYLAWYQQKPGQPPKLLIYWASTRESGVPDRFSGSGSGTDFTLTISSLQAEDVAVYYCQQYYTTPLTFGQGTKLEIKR
notes: scFv
B2: Polypeptide No. 18 (scFv, V domains shown)
VH: QVQLVQSGAEVKKPGASVKVSCKASGYTFTDHYMHWVRQAPGQGLEWMGWINPNSGGTNYAQKFQGRVTMTRDTSTSTVYMELSSLRSEDTAVYYCAKDKFGDEGSGWYGDFQHWGQGTLVTVSS
VL: not shown
notes: scFv
B3: Polypeptide No. 15 (scFv, V domains shown)
VH: EVQLLESGGGLVQPGGSLRLSCAASGFTFSIYEIHWVRQAPGKGLEWVSAISGSGGSTYYADSVKGRFTISRDNSKNTLYLQMNSLRAEDTAVYYCARSYCGGDCWDYYYYYGMDVWGQGTTVTVSS
VL: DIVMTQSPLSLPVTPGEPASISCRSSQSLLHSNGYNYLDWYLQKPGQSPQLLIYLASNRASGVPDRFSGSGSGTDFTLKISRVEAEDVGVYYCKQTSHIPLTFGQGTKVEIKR
notes: scFv
B4: Polypeptide No. 16 (scFv, V domains shown)
VH: EVQLVESGGGLVKPGGSLRLSCAASGFTFSDNSMNWVRQAPGKGLEWVSYISSSGSTIYYADSVKGRFTISRDDSKNTLYLQMNSLKTEDTAVYYCARGRASSWPNWFDPWGQGTLVTVSS
VL: DIVMTQSPLSLPVTPGEPASISCRSSQSLLHSNGYNYLDWYLQKPGQSPQLLIYSASNLQSGVPDRFSGSGSGTDFTLKISRVEAEDVGVYYCMQALQTPPTFGQGTKLEIKR
notes: scFv
B5: Polypeptide No. 13 (scFv, V domains shown)
VH: QVQLVQSGAEVKKPGASVKVSCKASGYSFTGYYMHWVRQAPGQGLEWMGWINPNSGGTYFAQNFQGRVTMTRDTSTSTVYMELSSLRSEDTAVYYCVKDRGDRVVTSYLDYWGQGTLVTVSS
VL: DIQMTQSPSSLSASVGDRVTITCRASQGIRNWLAWYQQKPGKAPKLLIYAASSLQSGVPSRFSGSGSGTDFTLTISSLQPEDFATYYCQQSYRTPYTFGQGTKLEIKR
notes: scFv
B6: Polypeptide No. 12 (scFv, V domains shown)
VH: EVQLLESGGGLVQPGGSLRLSCAASGFTFSSHWMSWVRQAPGKGLEWVSAISGSGGSTYYADSVKGRFTISRDNSKNTLYLQMNSLRAEDTAVYYCARDDNSGSQADWGQGTLVTVSS
VL: DIQMTQSPSSLSASVGDRVTITCQASQDIDNYLNWYQQKPGKAPKLLIYDASNLETGVPSRFSGSGSGTDFTLTISSLQPEDFATYYCQQSYSTPLTFGGGTKLEIKR
notes: scFv
B7: Polypeptide No. 17 (scFv, V domains shown)
VH: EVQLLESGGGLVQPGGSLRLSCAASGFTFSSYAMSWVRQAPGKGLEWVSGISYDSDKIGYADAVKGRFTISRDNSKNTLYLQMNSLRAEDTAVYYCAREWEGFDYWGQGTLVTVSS
VL: B6 VL with Q24R, D28G, D30S, Y32N, D50E, A51S, N53T, T94A, L104V
notes: scFv

molecular target: T1, huCD33-G69-Fc recombinant protein (human, UniProt P20138 18-259); experiment: BLI;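 note: scFvs from periplasmic extracts captured on biosensors via anti-V5 antibody, exposed to recombinant huCD33 variants for 2 min, 5 min dissociation, scored as binding, no binding or ambiguous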
T1 construct: extracellular domain; also called CD33 R69G
T1 sequence (P20138 18-259 R69G): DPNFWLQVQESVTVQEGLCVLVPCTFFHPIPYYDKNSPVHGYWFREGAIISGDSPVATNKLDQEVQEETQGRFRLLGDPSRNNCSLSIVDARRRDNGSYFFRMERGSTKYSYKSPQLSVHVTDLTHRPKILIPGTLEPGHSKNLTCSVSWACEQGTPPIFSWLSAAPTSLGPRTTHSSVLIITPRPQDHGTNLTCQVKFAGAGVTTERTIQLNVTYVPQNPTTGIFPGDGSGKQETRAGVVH

binding result	Binder
no binding	B1
no binding	B2
no binding	B3
no binding	B4
no binding	B5
no binding	B6
no binding	B7

molecular target: T2, huCD33-R69 stably expressed on Jurkat cells (human, UniProt P20138 18-364); experiment: FACS on cells;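 note: fixed Jurkat cells bearing either CD33 variant, barcoded by dye, exposed to myc-tagged scFv periplasmic extracts, detected with anti-myc PE antibody and read by flow cytometry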
T2 construct: whole, on cells; >200,000 receptors per cell; also called CD33 WT; CD33^ARG69
T2 sequence (P20138 18-364): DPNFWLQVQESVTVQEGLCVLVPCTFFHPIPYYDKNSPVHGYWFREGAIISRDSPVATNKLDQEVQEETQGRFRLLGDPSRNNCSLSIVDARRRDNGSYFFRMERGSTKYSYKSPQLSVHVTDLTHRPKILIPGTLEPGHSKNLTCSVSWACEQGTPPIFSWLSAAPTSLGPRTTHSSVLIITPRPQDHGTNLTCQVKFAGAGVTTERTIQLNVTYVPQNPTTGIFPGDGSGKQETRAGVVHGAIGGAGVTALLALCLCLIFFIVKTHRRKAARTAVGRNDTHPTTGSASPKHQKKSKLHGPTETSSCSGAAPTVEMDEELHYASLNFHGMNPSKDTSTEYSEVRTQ
Experimental: (§1) Jurkat cells were engineered to stably express either the huCD33-R69 or huCD33-G69 variant at >200,000 receptors per cell. Parental, huCD33-R69, and huCD33-G69 Jurkat cell lines were stained with differing levels of CellTrace Violet Cell Proliferation Kit (ThermoFisher, cat. #C34557) to barcode each cell line. Barcoded Jurkat cell lines were fixed with paraformaldehyde and incubated with myc-labeled scFv periplasmic extracts and a secondary anti-myc PE-conjugated monoclonal antibody. Appropriate positive and negative controls were used. Stained cells were analyzed by flow cytometry (CytoFLEX, Beckman Coulter, Inc.) and binding was assessed by change in PE mean fluorescence intensity (MFI) of the barcoded cell populations.

geometric mean MFI fold change over Jurkat parental	Binder
> 30 fold	B1
2 to 10 fold	B2
2 to 10 fold	B3
2 to 10 fold	B4
10 to 30 fold	B5
2 to 10 fold	B6
2 to 10 fold	B7

molecular target: T3, huCD33-G69 stably expressed on Jurkat cells (human, UniProt P20138 18-364); experiment: FACS on cells;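 note: fixed Jurkat cells bearing either CD33 variant, barcoded by dye, exposed to myc-tagged scFv periplasmic extracts, detected with anti-myc PE antibody and read by flow cytometry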
T3 construct: whole, on cells; >200,000 receptors per cell; also called CD33 Mutant; CD33 R69G
T3 sequence (P20138 18-364 R69G): as the sequence (P20138 18-364) above, with R52G counted along it
Experimental: as §1

geometric mean MFI fold change over Jurkat parental	Binder
< 2 fold	B1
< 2 fold	B2
< 2 fold	B3
< 2 fold	B4
< 2 fold	B5
< 2 fold	B6
< 2 fold	B7
